Experimental data: US20250320461A1, “GENETICALLY MODIFIED HUMAN STEM CELL EXPRESSING A MUTANT HUMAN CYTOCHROME P450 2B6 PROTEIN AND ITS USE THEREOF IN THE TREATMENT OF CANCER” (ASSISTANCE PUBLIQUE-HOPITAUX DE PARIS, priority 2019, published 2025)

Experiment: affinity of cytochrome P450 2B6 protein for CPA
Type: biochemical, human
From the text: In one particularly advantageous embodiment, said variants and fragments have an affinity for CPA the same as, substantially the same as, or greater than, that of the mutant human cytochrome P450 2B6 protein (CYP2B6*) of SEQ ID No 1.

B1: CYP2B6*: mutant human cytochrome P450 2B6 protein of SEQ ID No. 1 (substitutions I114V, L199M, V477W) (protein, listed as Homo sapiens)
chain: MELSVLLFLALLTGLLLLLVQRHPNTHDRLPPGPRPLPLLGNLLQMDRRGLLKSFLRFREKYGDVFTVHLGPRPVVMLCGVEAIREALVDKAEAFSGRGKIAMVDPFFRGYGVVFANGNRWKVLRRFSVTTMRDFGMGKRSVEERIQEEAQCLIEELRKSKGALMDPTFLFQSITANIICSIVFGKRFHYQDQEFLKMMNLFYQTFSLISSVFGQLFELFSGFLKYFPGAHRQVYKNLQEINAYIGHSVEKHRETLDPSAPKDLIDTYLLHMEKEKSNAHSEFSHQNLNLNTLSLFFAGTETTSTTLRYGFLLMLKYPHVAERVYREIEQVIGPHRPPELHDRAKMPYTEAVIYEIQRFSDLLPMGVPHIVTQHTSFRGYIIPKDTEVFLILSTALHDPHYFEKPDAFNPDHFLDANGALKKTEAFIPFSLGKRICLGEGIARAELFLFFTTILQNFSMASPVAPEDIDLTPQECGWGKIPPTYQIRFLPR
Compared with CYP2B6 WT
  Vmax: same
Vs CYP2B6 WT
  affinity for CPA relative to the wild-type protein (CYP2B6 WT): more than 8 times
